Target: Lon-His (C. crescentus) (UniProt B8GX12)
Sequence of UniProt B8GX12 (B8GX12 whole entry): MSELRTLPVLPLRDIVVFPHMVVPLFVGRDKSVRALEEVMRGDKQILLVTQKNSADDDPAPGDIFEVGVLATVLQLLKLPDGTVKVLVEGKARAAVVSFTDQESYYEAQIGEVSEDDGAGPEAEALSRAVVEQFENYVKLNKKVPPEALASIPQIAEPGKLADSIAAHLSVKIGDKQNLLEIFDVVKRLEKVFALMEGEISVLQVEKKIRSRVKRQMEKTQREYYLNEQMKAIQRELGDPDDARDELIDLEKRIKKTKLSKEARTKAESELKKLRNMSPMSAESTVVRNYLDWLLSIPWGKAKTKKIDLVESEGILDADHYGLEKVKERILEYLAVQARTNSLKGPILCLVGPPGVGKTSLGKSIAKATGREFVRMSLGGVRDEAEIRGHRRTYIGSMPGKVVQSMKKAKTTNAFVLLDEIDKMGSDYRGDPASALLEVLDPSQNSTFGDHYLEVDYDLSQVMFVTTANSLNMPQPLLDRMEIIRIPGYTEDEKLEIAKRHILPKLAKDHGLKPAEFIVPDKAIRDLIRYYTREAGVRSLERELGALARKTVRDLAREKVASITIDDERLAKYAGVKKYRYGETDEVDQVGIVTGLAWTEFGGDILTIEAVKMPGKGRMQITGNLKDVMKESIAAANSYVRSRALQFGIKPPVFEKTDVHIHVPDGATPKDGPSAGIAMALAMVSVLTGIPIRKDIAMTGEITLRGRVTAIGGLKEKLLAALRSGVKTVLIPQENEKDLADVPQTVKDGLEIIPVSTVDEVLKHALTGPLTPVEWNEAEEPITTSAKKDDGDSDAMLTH

- Km of His-SciP degradation by Lon-His (0.05 µM hexamer), without LarA: 9.3 µM
Substance: His-SciP (natural protein)
